According to US6034062A, “Bone morphogenetic protein (BMP)-9 compositions and their uses” (Genetics Institute, Inc., priority 1997, dated 2000):

Assays:
WI-38 cells = assay: Cell proliferation, [3H]thymidine incorporation, WI-38; format: cell-based; details: high doses of rhBMP-9, 24 h
Procedure: Several cell lines are tested for BMP-9 responsiveness in vitro. Cell proliferation, as indicated by [^3 H]thymidine incorporation, is determined in cell lines derived from kidney and lung. Cell proliferation is determined by measuring [^3 H]thymidine incorporation in subconfluent cells treated for 24 h with or without growth factors. NRK-52E (ATCC CRL 1571), WI-38 (ATCC CCL-75), CCD-11Lu (ATCC CCL-202), CCD-16Lu (ATCC CCL-204), and A-549 (ATCC CCL-185) cell lines are placed at 10^4 cells/well in 96 well plates and assayed for [^3 H]thymidine incorporation as described above. IMCD-3 cells (ATCC #CRL-2123) are cultured in a collagen matrix as described by Barros et al., PNAS USA 92:4412-4416 (1995), and treated with growth factors for 6 days to allow tubule formation.

liver plasma membranes = assay: [125I]rhBMP-9 binding to liver plasma membranes; details: adult rat liver plasma membranes, displaceable by 100-fold excess of unlabeled rhBMP-9
Procedure: To determine potential target tissues for BMP-9, plasma membrane preparations from adult rat organs are screened for specific [^125 I]rhBMP-9 binding. Plasma membranes are prepared by the methods of Neville, J. Biophys Biochem Cytol 8:412-422 (1960) and Ray, Biochim Biophys Acta 196:1-9 (1970) with the following modifications: Fresh tissues from adult male Long-Evans rats are homogenized with 10 strokes of a teflon homogenizer. Plasma membranes are collected from discontinuous sucrose gradients at 37%/41% sucrose interface and the 41%/45% sucrose interface. Homogenization buffer and sucrose solutions are supplemented with 0.7 μg/ml leupeptin, 2 μg/ml aprotinin and 240 μg/ml pefabloc. Protein levels in plasma membrane preparations are determined by the bicinchoninic acid assay (Pierce, Rockford, Ill.) using immunoglobulin G as a standard.
BMP-9 binding is carried out by suspending plasma membranes at 30 μg/100μl in binding buffer (136.9 mM NaCl, 5.37 mM KCl, 1.26 mM CaCl2, 0.64 mM MgSO4, 0.34 mM Na2 HPO4, 0.44 mM KH2 PO4, 0.49 mM MgCl2, 25 mM HEPES and 0.5% BSA, pH 7.4) containing o.5 ng [^125 I]rhBMP-9. Binding is allowed to equilibrate by incubation for 16 h at 4° C. […]
To verify that this specific binding is of high affinity, a more complete displacement profile is determined with lung and kidney plasma membranes.

B1: BMP-9: recombinant human bone morphogenetic protein-9, mature amino acids #1-#110 of SEQ ID NO:9, expressed in CHO cells (protein)
chain: TRECSRSCPRTAPQRQVRAVTRRTRMAHVAAGSTLARRKRSAGAGSHCQKTSLRVNFEDIGWDSWIIAPKEYEAYECKGGCFFPLADDVTPTKHAIVQTLVHLKFPTKVG
modifications: 125I-iodinated as tracer; unlabelled BMP-9 used as the displacing ligand
cell proliferation ([3H]thymidine incorporation) (WI-38 cells): statistically significant stimulation | specific [125I]rhBMP-9 binding (liver plasma membranes): evident
